Experimental data published in patent publication US12559863B2, “Macrocyclic modulators of disease associated protein misfolding and aggregation” (RESQ BIOTECH, priority 2017, dated 2026).

Assays:
SOD1(A4V) [1] = target: T1, SOD1(A4V) (Homo sapiens, UniProt P00441, A5V); test: Dynamic light scattering of SOD1(A4V) with cyclic peptide; type: biochemical; conditions: room temperature, 60 d
T1 construct: polyHis; made in house; host or cells: E. coli Origami 2(DE3)
Method: (§1) SOD1 or mutants thereof were overexpressed from the appropriate pET-SOD1 or PASK-SOD1 vectors in E. coli Origami 2(DE3) cells in LB medium containing 50 μg/mL kanamycin (for pET-SOD1) or 100 μg/mL ampicillin (for pASK-SOD1), 200 μM CuCl2, and 200 μM ZnCl2 by the addition of 0.01 mM IPTG (for pET-SOD1) or 0.2 μg/mL anhydrotetracycline (aTc) (for pASK-SOD1), either at 37° C. for 2-3 h or at 18° C. for about 16 h. Origami 2(DE3) cells were utilized in order to provide an oxidizing cytoplasmic environment in order to promote correct formation of disulfide bonds, which are required for proper SOD1 folding and function. Under these conditions, bacterially produced SOD1 is produced in dimeric and enzymatically active form, while it simultaneously co-exists with misfolded, soluble and insoluble SOD1 oligomeric/aggregated species (FIG. 3C). Thus, the acquired protein is found in a state that resembles the conditions encountered in human cells under stressful or pathogenic conditions. The appearance of misfolded SOD1 oligomers/aggregates is enhanced with increasing incubation temperatures. […]
The sizes of the SOD1 particles were measured using a Zetasizer NanoZS90 (Malvern) instrument. […]

[2] = tested on: HEK293 cells transiently expressing SOD1(A4V)-GFP; test: SOD1 aggregation and viability measurements in HEK293 cells; type: cell-based, human; conditions: 5 μM SOD1C5-4; compared to untreated cells
Method: Human embryonic kidney (HEK) 293 cells were transfected using a Nucleofector (Amaxa) following the manufacturer's protocol. 6 ug DNA (SOD1 or SOD1(A4V) cloned into the pEGFP-N3 plasmid vector) were used per 2×10^6 cells and 5 μM synthetic SOD1C5-4 was added, where appropriate, before plating. Transfected cells were sorted 18 h later on a FACSAria to isolate GFP-positive clones. […] Collected cells were plated onto a 24-well plate at a density of 50,000 cells/well. Microscopy analysis was performed under an inverted microscope on day 1 and day 5 in culture after sorting. Cell counts are the average number of viable GFP-fluorescing cells of two areas per triplicate of wells of 24-well plates (magnification 20×). Cell counts are presented as percentage of viability of SOD1-overxoressing cell. As aggregate-positive cells are counted the fluorescing inclusion body-positive cells. Again, two areas per triplicate of wells of 24-well plate are averaged (magnification 20×). Aggregate-positive cells are presented as percentage of the total viable GFP-fluorescing cells.

SOD1(A4V) [3] = target: T1, SOD1(A4V); test: Filter retardation assay of SOD1(A4V); type: biochemical; conditions: 25 d at 37° C.
Method: as §1

SOD1(A4V)-GFP = target: T2, SOD1(A4V)-GFP (Homo sapiens, UniProt P00441, A5V); test: Fluorescence of E. coli cells co-expressing SOD1(A4V)-GFP and cyclic peptide; type: cell-based; conditions: co-expression of cyclic peptide; compared to random cyclic peptides from initial library
T2 construct: polyHis; expressed in transfected cells; host or cells: E. coli Origami 2(DE3) (BL21(DE3) for the FACS screen)
From the text: Electrocompetent E. coli BL21(DE3) cells (Novagen, USA) carrying either the expression vector pETSOD1(A4V)-GFP, which produces SOD1(A4V)-GFP under control of the strong bacteriophage T7 promoter, or pETAβ42-GFP, which produces Aβ42-GFP under control of the T7 promoter, were co-transformed with the combined pSICLOPPS-NuX1X2X3-X5 vector library. Approximately 10^8 transformants carrying both the vector library and either pETSOD1(A4V)-GFP or pETAβ42-GFP vectors were harvested, pooled together, and grown in Luria-Bertani (LB) liquid medium containing either 0.005% (pETSOD1(A4F)-GFP) or 0.002% (pETAβ42-GFP) L-arabinose—the inducer of cyclic peptide production—at 37° C. with shaking. When the optical density at 600 nm (OD600) of the bacterial culture was about 0.5, 0.01 (pETSOD1(A4F)-GFP) or 0.1 (pETAβ42-GFP) mM isopropyl-β-D-thiogalactoside (IPTG) was added to the medium to induce overexpression of the reporter. […] The isolated cells were re-grown and screened for additional rounds in an identical manner until the desired enrichment in high-fluorescence clones was achieved.
For SOD1 or SOD1-GFP production, BL21(DE3) (Novagen, USA) or Origami 2(DE3) cells (Novagen, USA) were transformed with the corresponding SOD1- or SOD1-GFP-encoding vector, either with the appropriate pSICLOPPS vector or alone. […]
Bacterial cells corresponding to 1 mL culture with OD600=1 were harvested by centrifugation and re-suspended in 100 μL phosphate-buffered saline (PBS), transferred to a 96-well FLUOTRAC 200 plate (Greiner Bio One International, Austria), and their fluorescence was measured using a TECAN Safire II-Basic plate reader (Tecan, Austria). Excitation was set at 488 nm and emission was measured at 510 nm.

T1 sequence (P00441 whole entry A5V): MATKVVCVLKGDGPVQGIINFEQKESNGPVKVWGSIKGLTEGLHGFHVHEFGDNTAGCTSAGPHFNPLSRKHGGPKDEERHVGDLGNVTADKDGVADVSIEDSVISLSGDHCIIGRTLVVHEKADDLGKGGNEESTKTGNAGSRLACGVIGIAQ
T2 sequence (P00441 whole entry A5V): as above

With cyclo-TWSVW (cyclic) [SOD1C5-4] the “size of oligomeric/aggregated SOD1(A4V) species (DLS)” value (SOD1(A4V) [1]) was “markedly smaller sizes”, the “fluorescence of HEK293 cells expressing SOD1(A4V)-GFP” value [2] was “higher fluorescence” and the “inclusions comprising aggregated SOD1(A4V)-GFP” value [2] was “fewer inclusions comprising aggregated SOD1(A4V)-GFP”. The “viability of HEK293 cells expressing SOD1(A4V)-GFP” value [2] was “higher viability”, the “formation of large, amyloid-like SOD1(A4V) aggregates by filter retardation assay” value (SOD1(A4V) [3]) was “dramatically decreased” and the “SOD1(A4V)-GFP fluorescence of E. coli cells” value (SOD1(A4V)-GFP) was “highest levels of cellular SOD1(A4V)-GFP fluorescence”.
